This note sets out measurements from patent US8796209B2, “Compositions and methods related to anti-FGF agents” (The Regents of the University of California, priority 2005, dated 2014).

For one experiment, the system named is ERK1/2. Put plainly: MAP kinase (ERK1/2) activation, western blot. It counts as cell-based, mouse. Particulars: for ability to induce ERK1/2 activation: 5 ng/ml, 10 min, with or without 5 μg/ml heparin; for ERK1/2 activation: phenotype of FGF-1 mutants, Table 2. As for the experimental part: Serum starved Balb3T3 cells were stimulated with wild-type and mutant FGF-1s (5 ng/ml) in the presence or absence of 5 μg/ml heparin for 10 min at 37° C. Cell lysates were analyzed by western blotting with anti-phospho ERK1/2 (anti phospho-ERK). Total amount of ERK1/2 in each lane was determined by blotting with anti-ERK1/2. Controls contain medium alone (none) or medium containing 10% fetal calf serum (FCS).
Balb3T3 cells were grown to confluence and serum starved in DMEM supplemented with 0.4% fetal calf serum for 24 h, and stimulated with wild type and mutant FGF-1 (5 ng/ml) in the presence or absence of 5 μg/ml heparin for 10 min at 37° C. Cells were washed twice with ice-cold PBS and lysed with the lysis buffer (20 mM Tris-HCI pH 8.0, 120 mM NaCl, 5 mM EDTA, 0.5% Triton-X100, 1 mM PMSF, 1 mM DTT, 10 mM NaF, 1 mM Na3VO4, 10 μg/ml aprotinin). Cell lysates were separated on 4-12% NuPAGE Bis-Tris Gel (invitrogen). Proteins were then transferred to PVDF membranes (Milli-pore), probed with antibodies, and bound antibodies were detected by HRP-conjugated anti-mouse IgG and chemiluminescence HRP substrate (Pierce). The antibodies used were anti-phospho-ERK1/2, anti-ERK1/2 (Cell Signaling Technology).

The target in another experiment is T1, integrin αvβ3 (Homo sapiens, UniProt P05106+P06756).
T1 construct: using the soluble αv and β3 expression constructs provided by Tim Springer; made in house; host or cells: CHO K1
T1 sequence (P06756 31-992 limits assumed): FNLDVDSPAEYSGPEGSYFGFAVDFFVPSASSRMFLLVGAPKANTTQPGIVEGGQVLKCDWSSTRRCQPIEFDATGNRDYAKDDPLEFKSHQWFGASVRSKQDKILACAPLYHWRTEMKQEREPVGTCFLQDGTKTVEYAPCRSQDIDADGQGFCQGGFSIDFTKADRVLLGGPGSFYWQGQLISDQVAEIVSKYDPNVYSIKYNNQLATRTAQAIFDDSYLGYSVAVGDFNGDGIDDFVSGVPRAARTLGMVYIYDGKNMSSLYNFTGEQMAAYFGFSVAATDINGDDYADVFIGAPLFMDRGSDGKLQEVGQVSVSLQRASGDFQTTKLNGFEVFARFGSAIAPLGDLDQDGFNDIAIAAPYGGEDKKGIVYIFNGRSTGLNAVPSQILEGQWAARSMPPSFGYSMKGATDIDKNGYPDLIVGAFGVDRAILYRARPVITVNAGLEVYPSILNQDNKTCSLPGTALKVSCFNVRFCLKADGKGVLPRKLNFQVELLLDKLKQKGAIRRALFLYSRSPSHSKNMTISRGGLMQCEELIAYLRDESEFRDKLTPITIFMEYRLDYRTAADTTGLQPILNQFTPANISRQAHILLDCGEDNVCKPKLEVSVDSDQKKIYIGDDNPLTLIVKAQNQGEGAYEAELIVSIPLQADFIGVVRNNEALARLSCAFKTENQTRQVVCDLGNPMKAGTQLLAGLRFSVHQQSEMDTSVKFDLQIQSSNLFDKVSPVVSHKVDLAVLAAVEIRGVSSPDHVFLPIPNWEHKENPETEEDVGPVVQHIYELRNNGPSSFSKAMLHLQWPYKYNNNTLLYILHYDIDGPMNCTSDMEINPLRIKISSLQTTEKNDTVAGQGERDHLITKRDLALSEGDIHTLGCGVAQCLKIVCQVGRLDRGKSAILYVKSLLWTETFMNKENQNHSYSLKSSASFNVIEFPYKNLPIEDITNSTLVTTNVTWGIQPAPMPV
T1 sequence (P05106 27-718 limits assumed): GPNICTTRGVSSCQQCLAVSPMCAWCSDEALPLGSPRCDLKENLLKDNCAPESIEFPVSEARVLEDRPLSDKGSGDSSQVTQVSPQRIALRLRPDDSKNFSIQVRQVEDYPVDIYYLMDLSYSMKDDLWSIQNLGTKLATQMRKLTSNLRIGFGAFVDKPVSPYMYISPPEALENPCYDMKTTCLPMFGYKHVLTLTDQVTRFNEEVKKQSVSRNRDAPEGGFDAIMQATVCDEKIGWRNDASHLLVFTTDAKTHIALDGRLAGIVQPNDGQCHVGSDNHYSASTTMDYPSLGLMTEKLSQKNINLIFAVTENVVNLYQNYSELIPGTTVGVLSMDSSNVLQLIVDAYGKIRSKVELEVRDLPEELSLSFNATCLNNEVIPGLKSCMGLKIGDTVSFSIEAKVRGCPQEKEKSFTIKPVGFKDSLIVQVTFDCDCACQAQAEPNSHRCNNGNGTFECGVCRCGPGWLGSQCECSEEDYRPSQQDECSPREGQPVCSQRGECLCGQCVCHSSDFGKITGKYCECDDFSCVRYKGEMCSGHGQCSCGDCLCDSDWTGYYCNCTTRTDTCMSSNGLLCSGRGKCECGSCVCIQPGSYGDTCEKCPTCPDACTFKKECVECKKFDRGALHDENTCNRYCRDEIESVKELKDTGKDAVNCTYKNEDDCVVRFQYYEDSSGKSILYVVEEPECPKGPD
Description: Soluble integrin binding assay (ELISA-type), soluble αvβ3 on immobilized FGF. Conditions: for effect of the mutation on binding of soluble αvβ3 to FGF-1: mutant coated to plate; for αvβ3 binding: phenotype of FGF-1 mutants, Table 2. As for the experimental part:
Wells of 96-well microtiter plates were coated with 10 μg/ml FGF-1 or FGF-2 and remaining protein binding sites were blocked with 1 mg/ml BSA. Recombinant soluble αvβ3 (50 μl/well at 5 μg/ml in Hepes-Tyrode buffer supplemented with 1 mM MnCl2) was added to wells and incubated for 1 h at room temperature. Soluble αvβ3 was incubated with 10 μg/ml 7E3 (white bar) or mouse IgG (black bar) for 10 min on ice prior to adding to the wells. BSA (circle) was used as a negative control. Data is shown as means+/−SD of triplicate experiments.
FGF-1 (10 μg/m) was heat-treated at indicated temperature for 10 min prior to immobilization. Binding of soluble αvβ3 was determined as described in FIG. 1. Data is shown as percent binding+/−SD of triplicate experiments.
Amino acid residues in the integrin-binding site or in the FGFR-binding site were mutated individually or in groups. Wild-type (diamond), R50E (open square), N33A (closed square), 4xE (circle), 3xA (triangle) were coated to a plastic plate various concentration as indicated and the binding of soluble αvβ3 was determined as described in FIG. 2. BSA (cross) was used as a negative control. […] “4xE” represents the K127E/K128E/K133E/R134E mutant. “3xA” represents the E102A/Y109A/Q110A mutant.
Binding assays were performed as previously described (Takagi et al., 2001). Native or heat-denatured FGF-1 in 0.1 M carbonate buffer, pH 9.4, were incubated in a polystyrene 96-well non-tissue culture plates surface overnight at 4° C. Unbound FGF-1 was removed, and 200 μl of 0.1% bovine serum albumin in PBS was added and incubated for 60 min at room temperature. The wells were washed with PBS and soluble integrin αvβ3 in 50 μl in Hepes-Tyrode buffer supplemented with 1 mM Mn^2+ were added to the wells and incubated at room temperature for 60 min. After non-bound soluble integrin were removed by rinsing the wells with the same buffer. Horseradish peroxidase (HRP) conjugated anti His-tag mouse IgG was added to well and incubated 60 min. Non-bound antibodies were removed by rinsing the wells with the same buffer, bound integrins were quantified by measuring the absorbance of 450 nm developed from adding the substrate (3,3′,5,5′-tetramethylbenzidine) of HRP unbound protein was aspirated, and the wells were washed with PBS three times.

Experiment [1] relates to Human microvascular endothelial (HMVE) cells. Description: Tube formation by endothelial cells on Matrigel. The experiment is classed as cell-based. Conditions: 24 h. As to the method: Digital images were taken by using a fluorescent microscope and analyzed by using ImageJ, using human microvascular endothelial (HMVE) cells added to the matrix-coated wells of 96-well plates at 2×10^4 cells/well in medium M-131 plus 0.1% hydrocortisone and 0.1% FBS for. Cells were incubated for 24 h in the presence of wt or mutant FGF. To enhance images, calcein AM was added to the medium.
Wells of 96-well FluoroNunc black plates were coated with 50 μl of matrigel basement membrane matrix (BD Bioscience) and allowed to gel at 37° C. for 30 min. Endothelial cells growing on the tissue culture plastic were trypsinized, washed, and added to the matrix-coated wells at 2×10^4 cells/well. Plating was performed in medium M-131 plus 0.1% hydrocortisone and 0.1% FBS for Human microvascular endothelial (HMVE) cells. Cells were incubated for 24 h in the presence of wt or mutant FGF. To enhance images, calcein AM (Invitrogen) was added to the medium (10 μg/ml) and incubated for 15 min at 37° C. Digital images were taken by using a fluorescent microscope and analyzed by using ImageJ. (FIGS. 9A and 9B).

Another experiment concerns Balb 3T3 cells. Description: Chemotaxis assay (Transwell). Particulars: for effect of the mutation on FGF-1-induced chemotaxis: 5 ng/ml, 24 h; for Chemotaxis: phenotype of FGF-1 mutants, Table 2. The experiment is classed as cell-based, mouse. As to the method: The bottom of the polycarbonate filter of the Transwell apparatus was coated with 10 μg/ml of fibronectin. The lower chamber contained 600 μI of serum-free DMEM containing 5 ng/ml wild-type or mutants FGF-1. Balb 3T3 cells (10^5 cells/filter) were plated on filter and incubated 37° C. for 24 h, and cells were stained with crystal violet. Cells that migrated to the bottom side of the membrane were counted. Results are expressed as means of the number of migrated cells in 2 fields.
A polycarbonate filter of 8 μm pore size of the Transwell insert was coated with 10 μg/ml of fibronectin (Sigma) overnight at 4° C. After washing, the insert was placed into a 24-well cell culture plate, and the lower portion of the plate was filled with 600 μl of serum-free DMEM containing 5 ng/ml wild type or mutant FGF-1. Balb 3T3 cells (10^5 cells/filter) were plated on filter and incubated 37° C. for 24 h, and cells were visualized by crystal violet staining (0.5% crystal violet in 50 mM Borate, pH 9.0, and 2% ethanol). The uncoated side of each filter was wiped with a cotton swab to remove cells that had not migrated through the filter. Migrated cells were counted from the digital images of stained cells. Determining the mean number of cells counted per field. Results are expressed as means±SD of the relative cell number with non-stimulated cells set as 100).

“Also recorded” adds a separate entry of the source.

For “R50E: FGF-1 mutant with the Arg-50 to Glu (R50E) mutation”, in the experiment with ERK1/2, the “ability to induce ERK1/2 activation” value is “much less ability” and the ERK1/2 activation result is “Low”. In the experiment with integrin αvβ3, the “effect of the mutation on binding of soluble αvβ3 to FGF-1” value (from here on “effect of the mutation … to FGF-1”) is reported as “blocked the binding; also recorded: effectively blocked” and the αvβ3 binding entry is “Low”. Also, in experiment [1], the “tube formation by endothelial cells on matrigel” value is “block tube formation”. Also, in the experiment on Balb 3T3 cells, the “effect of the mutation on FGF-1-induced chemotaxis” value is “blocked” and the Chemotaxis entry is given as “Low”.
On to “Wild type: human FGF-1 (acidic FGF), wild type, expressed in E. coli”, for which, in the experiment on ERK1/2, the ERK1/2 activation entry is on record as “Normal”. The “binding of soluble αvβ3 to the immobilized protein” value in the experiment with integrin αvβ3 (coated at 10 μg/ml, soluble αvβ3 5 μg/ml, 1 mM MnCl2) was “bound”. Also, the “binding of soluble αvβ3 to heat-denatured protein” value with integrin αvβ3 (heat-denatured, heat-treated 10 min before immobilization) is “did not bind”. Also, the αvβ3 binding result with integrin αvβ3 is “Normal”. Further, the “tube formation by endothelial cells on matrigel” value in experiment [1] is given as “enhanced”. The Chemotaxis entry in the experiment on Balb 3T3 cells is given as “Normal”.

B1: 4xE: FGF-1 mutant, Lys127/Lys128/Lys133/Arg134 simultaneously to Glu (protein)
chain: FNLPPGNYKKPKLLYCSNGGHFLRILPDGTVDGTRDRSDQHIQLQLSAESVGEVYIKSTETGQYLAMDTDGLLYGSQTPNEECLFLERLEENHYNTYISKKHAEKNWFVGLEENGSCEEGPRTHYGQKAILFLPLPVSSD
Regarding B1, in the experiment with ERK1/2, the “ability to induce ERK1/2 activation” value is on record as “did not induce ERK1/2 activation at all” and the ERK1/2 activation result is listed as “Low”. Also, in the experiment with integrin αvβ3, the “effect of the mutation … to FGF-1” value was “effectively blocked” and the αvβ3 binding entry is listed as “Low”. Besides, in the experiment on Balb 3T3 cells, the “effect of the mutation on FGF-1-induced chemotaxis” value is “blocked” and the Chemotaxis entry is reported as “Low”.

B2: 3xA: FGF-1 mutant, three residues in the FGFR binding site (Glu102/Tyr109/Asn110) to Ala (protein)
chain: FNLPPGNYKKPKLLYCSNGGHFLRILPDGTVDGTRDRSDQHIQLQLSAESVGEVYIKSTETGQYLAMDTDGLLYGSQTPNEECLFLARLEENHAATYISKKHAEKNWFVGLKKNGSCKRGPRTHYGQKAILFLPLPVSSD
As to B2, in the experiment on ERK1/2, the “ability to induce ERK1/2 activation” value was “did not show ERK1/2 activation” and the ERK1/2 activation entry is “Low”. For the same molecule, in the experiment with integrin αvβ3, the “effect of the mutation … to FGF-1” value is “did not affect” and the αvβ3 binding entry was “Normal”. Moreover, the Chemotaxis result in the experiment on Balb 3T3 cells is given as “Low”.
